Results taken from the supplement of paper PMC10567573.

B1: SEC22B (parent)
chain: FPKKLAFAYLEDLHSEFDEQHGKK

Variants of: B1
Assay: protein stability index of a GFP-peptide fusion (GPS, HEK-293T) (PSI 1-6); higher = more stable
Conditions: c terminus: a fixed tail appended
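Also: lentivirally expressed fusions sorted by FACS into six bins by GFP to DsRed ratio, PSI derived from sequencing read proportions per bin multiplied by bin number.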

Protein stability index, by site and new letter:
A8: M 2.68 | D 3.39 | C 2.09 | Y 1.79 | I 2.4 | N 2.83 | F 2.26 | E 3.27 | G 3.04 | P 2.84 | R 2.34
L5: V 2.9 | D 3.26 | W 1.59 | T 3.02 | R 2.65 | G 2.41 | Q 3.18 | K 2.85 | H 1.95 | P 1.77 | E 3.56 | Y 2.52 | A 2.15 | I 2.98 | S 2.64 | C 1.66
H14: N 2.46 | L 2.31 | A 2.47 | Q 2.85 | Y 2.28 | P 2.2 | S 2.75 | C 2.07 | M 2.23 | R 2.55 | V 1.98 | T 2.89 | F 1.91 | E 2.13
Y9: L 2.63 | Q 2.91 | D 3.15 | I 1.8 | A 2.85 | W 1.67 | E 3.04 | S 2.73 | G 3.27 | R 3.09 | F 1.99 | K 3.08 | V 2.2 | M 2.48
P2: C 1.87 | F 2.62 | M 3.04 | G 3.38 | T 3.05 | E 4.11 | R 2.94 | A 1.84 | V 2.29 | Y 2.16 | Q 2.88 | L 1.68 | K 2.55
D12: I 1.72 | P 2.33 | C 1.95 | A 2.1 | E 3.72 | R 1.93 | Q 2.22 | Y 1.89 | F 1.97 | L 1.77 | N 2.97 | S 2.16 | H 2.25 | M 2.39 | V 1.85 | G 2.77
A6: M 2.3 | N 2.56 | C 2.29 | H 2.91 | P 3.06 | T 3.03 | F 2.4 | Y 1.66 | I 2.35 | E 3.96 | V 2.45 | K 2.59 | R 2.28 | D 3.13 | G 2.45 | W 2.74
E16: W 1.94 | C 2 | F 1.53 | R 2.39 | S 2.8 | P 2.25 | K 2.87 | T 2.36 | L 2.29 | V 1.87 | G 2.5
K4: I 2.02 | Y 1.95 | R 1.61 | Q 2.52 | T 2.47 | M 2.02 | H 2.87 | A 1.81 | P 2.45 | G 2.72 | D 3.31 | V 2.25 | N 2.27 | S 1.55 | C 1.78 | W 1.05
K23: A 2.36 | W 2.38 | E 2.81 | D 3.12 | V 2.67 | N 2.66 | F 2.07 | Q 2.81 | H 2.63
D18: T 2.56 | H 2.38 | G 2.38 | Q 2.25 | F 2.04 | E 2.65 | S 2.92 | I 1.92 | A 2.38 | M 2.22 | P 2.47 | V 2.45 | W 2.17 | C 1.9 | K 1.76 | Y 1.5
Q20: F 2.49 | H 2.47 | N 2.55 | S 2.58 | V 2.84 | T 2.44 | I 2.03 | Y 2.47 | D 2.93 | G 2.32 | P 2.4
F7: Y 2.5 | L 2.65 | H 3.42 | V 2.67 | N 3.79 | R 3.28 | S 3.8 | A 3.63 | D 3.98 | W 1.95 | E 4 | Q 4.16 | G 3.8 | C 3.47 | K 3.8
L13: M 2.3 | G 3.51 | S 2.56 | N 3.13 | D 2.54 | F 2.5 | T 2.79 | W 2.99 | C 2.83 | I 2.62 | Y 2.47 | Q 3.21 | K 3.2 | V 2.55 | A 3.2
G22: R 2.51 | A 2.54 | T 2.43 | M 2.62 | F 1.97 | H 3 | Q 2.36 | C 2.35 | K 2.23 | W 2.23 | Y 1.98 | P 2.48 | V 2.12
H21: S 2.6 | E 2.85 | Y 2.37 | D 3.02 | R 2.37 | V 2.28 | G 2.5 | I 1.98 | N 3.07 | W 2.34 | T 2.69 | F 2.46 | L 2.25
E19: C 2.15 | F 2.51 | T 2.42 | W 2.12 | V 2.32 | Y 2.39 | P 2.79 | N 2.86 | Q 2.33 | M 2.53 | A 2.47 | I 2.37
F17: S 2.64 | W 2.57 | P 2.75 | R 2.85 | M 2.45 | D 3.03 | E 3.04 | Y 2.91 | Q 3.28 | G 2.4 | N 2.76 | K 2.98 | C 2.87
E11: C 1.88 | Q 1.94 | P 1.8 | G 2.08 | I 1.87 | D 2.37 | K 2.63 | M 2.17 | W 2.02 | F 1.97 | Y 1.98 | A 2.29 | T 2.64 | H 1.86
S15: F 2.15 | P 2.42 | Q 2.73 | L 2.85 | T 2.41 | C 2.25 | A 2.15 | E 2.9 | V 2.88 | Y 2.08 | H 2.22 | I 2.25 | W 2.27 | D 2.89 | R 2.41 | K 2.54
K24: D 2.68 | W 2.54 | S 2.8 | P 2.29 | I 1.89 | F 2.21 | A 2.72 | T 2.5 | M 2.36 | N 2.32 | L 2.12 | Y 2.49 | E 2.83 | V 2.49 | G 2.11
L10: Y 2.84 | C 2.21 | V 2.11 | W 2.27 | K 3.46 | H 2.75 | M 2.43 | E 3.35 | Q 3.39 | I 2.34 | P 2.92 | G 2.78 | T 3.16 | R 2.75 | S 3.15
F1: E 5.41 | A 4.36 | C 4.01 | R 3.98 | Y 2.53 | D 4.93 | P 4.6 | T 4.37 | S 4.52 | K 4.8 | W 3.51 | G 4.02 | L 3.79 | M 3.97 | I 3.56 | N 4.88
K3: N 2.23 | H 1.17 | S 2.01 | R 2.42 | Q 2.4 | E 2.95 | M 2.2 | T 2.53 | P 3.08 | I 2.17 | Y 1.74 | C 1.69 | L 2.79 | D 2.25
